Laboratory results taken from patent US20220306695A1, “COMPSTATIN ANALOGUES AND THEIR MEDICAL USES” (priority 2019, published 2022).
Starred links: 1 amine or outer side, 2 acyl side, 3 side chain; linkers in the order of their positions; H or OH if unused. Positions of bridges follow the written chain, without caps; N, C: chain ends. Non-standard residues stand in square brackets, D forms with d. Groups on a side chain read outwards from the residue. *: point of attachment. C20 diacid = O=C(O)CCCCCCCCCCCCCCCCCCC(=O)*; Trp(1-Me) = Cn1cc(C[C@H](N)C(=O)O)c2ccccc21; C18 diacid = O=C(O)CCCCCCCCCCCCCCCCC(=O)*; γGlu = O=C(O)[C@H](CCC(=O)[*:2])N[*:1]; hCys = N[C@@H](CCS)C(=O)O; AEEA = NCCOCCOCC(=O)O; Sar = CNCC(=O)O

B1: Compound 53 (peptide)
peptide: Ac-EGSAFCI[Trp(1-Me)]QDWGEHRC[Sar]E-NH2
modifications: disulfide 6-16
SMILES: CC[C@H](C)[C@@H]1NC(=O)[C@@H](NC(=O)[C@H](Cc2ccccc2)NC(=O)[C@H](C)NC(=O)[C@H](CO)NC(=O)CNC(=O)[C@H](CCC(=O)O)NC(C)=O)CSSC[C@@H](C(=O)N(C)CC(=O)N[C@@H](CCC(=O)O)C(N)=O)NC(=O)[C@H](CCCNC(=N)N)NC(=O)[C@H](Cc2c[nH]cn2)NC(=O)[C@H](CCC(=O)O)NC(=O)CNC(=O)[C@H](Cc2c[nH]c3ccccc23)NC(=O)[C@H](CC(=O)O)NC(=O)[C@H](CCC(N)=O)NC(=O)[C@H](Cc2cn(C)c3ccccc23)NC1=O
B2: Compound 9 (peptide)
peptide: Ac-YCIWQDWGEHRCT-NH2
modifications: disulfide 2-12
SMILES: CC[C@H](C)[C@@H]1NC(=O)[C@@H](NC(=O)[C@H](Cc2ccc(O)cc2)NC(C)=O)CSSC[C@@H](C(=O)N[C@H](C(N)=O)[C@@H](C)O)NC(=O)[C@H](CCCNC(=N)N)NC(=O)[C@H](Cc2c[nH]cn2)NC(=O)[C@H](CCC(=O)O)NC(=O)CNC(=O)[C@H](Cc2c[nH]c3ccccc23)NC(=O)[C@H](CC(=O)O)NC(=O)[C@H](CCC(N)=O)NC(=O)[C@H](Cc2c[nH]c3ccccc23)NC1=O
B3: Compound 8 (peptide)
peptide: Ac-ICIWQKWGAHRCTGAES-NH2
modifications: disulfide 2-12
SMILES: CC[C@H](C)[C@H](NC(C)=O)C(=O)N[C@H]1CSSC[C@@H](C(=O)N[C@H](C(=O)NCC(=O)N[C@@H](C)C(=O)N[C@@H](CCC(=O)O)C(=O)N[C@@H](CO)C(N)=O)[C@@H](C)O)NC(=O)[C@H](CCCNC(=N)N)NC(=O)[C@H](Cc2c[nH]cn2)NC(=O)[C@H](C)NC(=O)CNC(=O)[C@H](Cc2c[nH]c3ccccc23)NC(=O)[C@H](CCCCN)NC(=O)[C@H](CCC(N)=O)NC(=O)[C@H](Cc2c[nH]c3ccccc23)NC(=O)[C@H]([C@@H](C)CC)NC1=O
B4: Compound 118 (peptide)
peptide: Ac-SEYCI[Trp(1-Me)]QDWGEHRC[Sar]EGAK([AEEA-γGlu-AEEA-Gly-γGlu-C18 diacid])-NH2
modifications: disulfide 4-14
SMILES: CC[C@H](C)[C@@H]1NC(=O)[C@@H](NC(=O)[C@H](Cc2ccc(O)cc2)NC(=O)[C@H](CCC(=O)O)NC(=O)[C@H](CO)NC(C)=O)CSSC[C@@H](C(=O)N(C)CC(=O)N[C@@H](CCC(=O)O)C(=O)NCC(=O)N[C@@H](C)C(=O)N[C@@H](CCCCNC(=O)COCCOCCNC(=O)CC[C@H](NC(=O)COCCOCCNC(=O)CNC(=O)CC[C@H](NC(=O)CCCCCCCCCCCCCCCCC(=O)O)C(=O)O)C(=O)O)C(N)=O)NC(=O)[C@H](CCCNC(=N)N)NC(=O)[C@H](Cc2c[nH]cn2)NC(=O)[C@H](CCC(=O)O)NC(=O)CNC(=O)[C@H](Cc2c[nH]c3ccccc23)NC(=O)[C@H](CC(=O)O)NC(=O)[C@H](CCC(N)=O)NC(=O)[C@H](Cc2cn(C)c3ccccc23)NC1=O
B5: Compound 120 (peptide)
peptide: Ac-SEFCI[Trp(1-Me)]QEWGEHRC[Sar]EGAK([AEEA-γGlu-AEEA-Gly-γGlu-C18 diacid])-NH2
modifications: disulfide 4-14
SMILES: CC[C@H](C)[C@@H]1NC(=O)[C@@H](NC(=O)[C@H](Cc2ccccc2)NC(=O)[C@H](CCC(=O)O)NC(=O)[C@H](CO)NC(C)=O)CSSC[C@@H](C(=O)N(C)CC(=O)N[C@@H](CCC(=O)O)C(=O)NCC(=O)N[C@@H](C)C(=O)N[C@@H](CCCCNC(=O)COCCOCCNC(=O)CC[C@H](NC(=O)COCCOCCNC(=O)CNC(=O)CC[C@H](NC(=O)CCCCCCCCCCCCCCCCC(=O)O)C(=O)O)C(=O)O)C(N)=O)NC(=O)[C@H](CCCNC(=N)N)NC(=O)[C@H](Cc2c[nH]cn2)NC(=O)[C@H](CCC(=O)O)NC(=O)CNC(=O)[C@H](Cc2c[nH]c3ccccc23)NC(=O)[C@H](CCC(=O)O)NC(=O)[C@H](CCC(N)=O)NC(=O)[C@H](Cc2cn(C)c3ccccc23)NC1=O
B6: Compound 148 (peptide)
peptide: SEFAIWQDWGEHRCTEGEXESK
modifications: not fully specified; N-acetyl; C-terminal amide; delta-cystathionine (Ctt2) thioether bridge A4-hCys14 (hCys written C); W6 is 1-Me-Trp; X19 is Peg3; K22 side chain bears [17-carboxy-heptadecanoyl][γGlu]
B7: Compound 166 (peptide)
peptide: Ac-SEF[hCys]I[Trp(1-Me)]QDW[Sar]EHRA[Sar]EGE[AEEA]ESK([γGlu-Gly-γGlu-C18 diacid])-NH2
modifications: thioether 4-14
SMILES: CC[C@H](C)[C@@H]1NC(=O)[C@@H](NC(=O)[C@H](Cc2ccccc2)NC(=O)[C@H](CCC(=O)O)NC(=O)[C@H](CO)NC(C)=O)CCSC[C@@H](C(=O)N(C)CC(=O)N[C@@H](CCC(=O)O)C(=O)NCC(=O)N[C@@H](CCC(=O)O)C(=O)NCCOCCOCC(=O)N[C@@H](CCC(=O)O)C(=O)N[C@@H](CO)C(=O)N[C@@H](CCCCNC(=O)CC[C@H](NC(=O)CNC(=O)CC[C@H](NC(=O)CCCCCCCCCCCCCCCCC(=O)O)C(=O)O)C(=O)O)C(N)=O)NC(=O)[C@H](CCCNC(=N)N)NC(=O)[C@H](Cc2c[nH]cn2)NC(=O)[C@H](CCC(=O)O)NC(=O)CN(C)C(=O)[C@H](Cc2c[nH]c3ccccc23)NC(=O)[C@H](CC(=O)O)NC(=O)[C@H](CCC(N)=O)NC(=O)[C@H](Cc2cn(C)c3ccccc23)NC1=O
B8: Compound 5 (peptide)
peptide: Ac-ICIWQDWGKHRCT-NH2
modifications: disulfide 2-12
SMILES: CC[C@H](C)[C@H](NC(C)=O)C(=O)N[C@H]1CSSC[C@@H](C(=O)N[C@H](C(N)=O)[C@@H](C)O)NC(=O)[C@H](CCCNC(=N)N)NC(=O)[C@H](Cc2c[nH]cn2)NC(=O)[C@H](CCCCN)NC(=O)CNC(=O)[C@H](Cc2c[nH]c3ccccc23)NC(=O)[C@H](CC(=O)O)NC(=O)[C@H](CCC(N)=O)NC(=O)[C@H](Cc2c[nH]c3ccccc23)NC(=O)[C@H]([C@@H](C)CC)NC1=O
B9: Compound 144 (peptide)
peptide: Ac-SEFCI[Trp(1-Me)]QDW[Sar]EHRC[Sar]E[AEEA][AEEA]K([γGlu-Gly-γGlu-C18 diacid])-NH2
modifications: disulfide 4-14
SMILES: CC[C@H](C)[C@@H]1NC(=O)[C@@H](NC(=O)[C@H](Cc2ccccc2)NC(=O)[C@H](CCC(=O)O)NC(=O)[C@H](CO)NC(C)=O)CSSC[C@@H](C(=O)N(C)CC(=O)N[C@@H](CCC(=O)O)C(=O)NCCOCCOCC(=O)NCCOCCOCC(=O)N[C@@H](CCCCNC(=O)CC[C@H](NC(=O)CNC(=O)CC[C@H](NC(=O)CCCCCCCCCCCCCCCCC(=O)O)C(=O)O)C(=O)O)C(N)=O)NC(=O)[C@H](CCCNC(=N)N)NC(=O)[C@H](Cc2c[nH]cn2)NC(=O)[C@H](CCC(=O)O)NC(=O)CN(C)C(=O)[C@H](Cc2c[nH]c3ccccc23)NC(=O)[C@H](CC(=O)O)NC(=O)[C@H](CCC(N)=O)NC(=O)[C@H](Cc2cn(C)c3ccccc23)NC1=O
B10: Compound 7 (peptide)
peptide: Ac-ICIWQKWGEHRCT-NH2
modifications: disulfide 2-12
SMILES: CC[C@H](C)[C@H](NC(C)=O)C(=O)N[C@H]1CSSC[C@@H](C(=O)N[C@H](C(N)=O)[C@@H](C)O)NC(=O)[C@H](CCCNC(=N)N)NC(=O)[C@H](Cc2c[nH]cn2)NC(=O)[C@H](CCC(=O)O)NC(=O)CNC(=O)[C@H](Cc2c[nH]c3ccccc23)NC(=O)[C@H](CCCCN)NC(=O)[C@H](CCC(N)=O)NC(=O)[C@H](Cc2c[nH]c3ccccc23)NC(=O)[C@H]([C@@H](C)CC)NC1=O
B11: Compound 106 (peptide)
peptide: Ac-SAYCI[Trp(1-Me)]QDWGEHRC[Sar]EK([γGlu-Gly-γGlu-C18 diacid])-NH2
modifications: disulfide 4-14
SMILES: CC[C@H](C)[C@@H]1NC(=O)[C@@H](NC(=O)[C@H](Cc2ccc(O)cc2)NC(=O)[C@H](C)NC(=O)[C@H](CO)NC(C)=O)CSSC[C@@H](C(=O)N(C)CC(=O)N[C@@H](CCC(=O)O)C(=O)N[C@@H](CCCCNC(=O)CC[C@H](NC(=O)CNC(=O)CC[C@H](NC(=O)CCCCCCCCCCCCCCCCC(=O)O)C(=O)O)C(=O)O)C(N)=O)NC(=O)[C@H](CCCNC(=N)N)NC(=O)[C@H](Cc2c[nH]cn2)NC(=O)[C@H](CCC(=O)O)NC(=O)CNC(=O)[C@H](Cc2c[nH]c3ccccc23)NC(=O)[C@H](CC(=O)O)NC(=O)[C@H](CCC(N)=O)NC(=O)[C@H](Cc2cn(C)c3ccccc23)NC1=O
B12: Compound 151 (peptide)
peptide: Ac-SEFAI[Trp(1-Me)]QDWGEHR[hCys]TGAES-NH2
modifications: thioether 4-14
SMILES: CC[C@H](C)[C@@H]1NC(=O)[C@@H](NC(=O)[C@H](Cc2ccccc2)NC(=O)[C@H](CCC(=O)O)NC(=O)[C@H](CO)NC(C)=O)CSCC[C@@H](C(=O)N[C@H](C(=O)NCC(=O)N[C@@H](C)C(=O)N[C@@H](CCC(=O)O)C(=O)N[C@@H](CO)C(N)=O)[C@@H](C)O)NC(=O)[C@H](CCCNC(=N)N)NC(=O)[C@H](Cc2c[nH]cn2)NC(=O)[C@H](CCC(=O)O)NC(=O)CNC(=O)[C@H](Cc2c[nH]c3ccccc23)NC(=O)[C@H](CC(=O)O)NC(=O)[C@H](CCC(N)=O)NC(=O)[C@H](Cc2cn(C)c3ccccc23)NC1=O
B13: Compound 152 (peptide)
peptide: SEFCIWQDWGEHRAGEGEXXK
modifications: not fully specified; N-acetyl; C-terminal amide; gamma-cystathionine (Ctt1) thioether bridge hCys4-A14 (hCys written C); W6 is 1-Me-Trp; G15 is Sar; X19 and X20 are Peg3; K21 side chain bears [17-carboxy-heptadecanoyl][γGlu]G[γGlu]

Molecular target: Human C3 (human, UniProt P01024 23-1663)
Experiment: cell-based or functional assay

Human C3, sequence (P01024 23-1663 limits assumed): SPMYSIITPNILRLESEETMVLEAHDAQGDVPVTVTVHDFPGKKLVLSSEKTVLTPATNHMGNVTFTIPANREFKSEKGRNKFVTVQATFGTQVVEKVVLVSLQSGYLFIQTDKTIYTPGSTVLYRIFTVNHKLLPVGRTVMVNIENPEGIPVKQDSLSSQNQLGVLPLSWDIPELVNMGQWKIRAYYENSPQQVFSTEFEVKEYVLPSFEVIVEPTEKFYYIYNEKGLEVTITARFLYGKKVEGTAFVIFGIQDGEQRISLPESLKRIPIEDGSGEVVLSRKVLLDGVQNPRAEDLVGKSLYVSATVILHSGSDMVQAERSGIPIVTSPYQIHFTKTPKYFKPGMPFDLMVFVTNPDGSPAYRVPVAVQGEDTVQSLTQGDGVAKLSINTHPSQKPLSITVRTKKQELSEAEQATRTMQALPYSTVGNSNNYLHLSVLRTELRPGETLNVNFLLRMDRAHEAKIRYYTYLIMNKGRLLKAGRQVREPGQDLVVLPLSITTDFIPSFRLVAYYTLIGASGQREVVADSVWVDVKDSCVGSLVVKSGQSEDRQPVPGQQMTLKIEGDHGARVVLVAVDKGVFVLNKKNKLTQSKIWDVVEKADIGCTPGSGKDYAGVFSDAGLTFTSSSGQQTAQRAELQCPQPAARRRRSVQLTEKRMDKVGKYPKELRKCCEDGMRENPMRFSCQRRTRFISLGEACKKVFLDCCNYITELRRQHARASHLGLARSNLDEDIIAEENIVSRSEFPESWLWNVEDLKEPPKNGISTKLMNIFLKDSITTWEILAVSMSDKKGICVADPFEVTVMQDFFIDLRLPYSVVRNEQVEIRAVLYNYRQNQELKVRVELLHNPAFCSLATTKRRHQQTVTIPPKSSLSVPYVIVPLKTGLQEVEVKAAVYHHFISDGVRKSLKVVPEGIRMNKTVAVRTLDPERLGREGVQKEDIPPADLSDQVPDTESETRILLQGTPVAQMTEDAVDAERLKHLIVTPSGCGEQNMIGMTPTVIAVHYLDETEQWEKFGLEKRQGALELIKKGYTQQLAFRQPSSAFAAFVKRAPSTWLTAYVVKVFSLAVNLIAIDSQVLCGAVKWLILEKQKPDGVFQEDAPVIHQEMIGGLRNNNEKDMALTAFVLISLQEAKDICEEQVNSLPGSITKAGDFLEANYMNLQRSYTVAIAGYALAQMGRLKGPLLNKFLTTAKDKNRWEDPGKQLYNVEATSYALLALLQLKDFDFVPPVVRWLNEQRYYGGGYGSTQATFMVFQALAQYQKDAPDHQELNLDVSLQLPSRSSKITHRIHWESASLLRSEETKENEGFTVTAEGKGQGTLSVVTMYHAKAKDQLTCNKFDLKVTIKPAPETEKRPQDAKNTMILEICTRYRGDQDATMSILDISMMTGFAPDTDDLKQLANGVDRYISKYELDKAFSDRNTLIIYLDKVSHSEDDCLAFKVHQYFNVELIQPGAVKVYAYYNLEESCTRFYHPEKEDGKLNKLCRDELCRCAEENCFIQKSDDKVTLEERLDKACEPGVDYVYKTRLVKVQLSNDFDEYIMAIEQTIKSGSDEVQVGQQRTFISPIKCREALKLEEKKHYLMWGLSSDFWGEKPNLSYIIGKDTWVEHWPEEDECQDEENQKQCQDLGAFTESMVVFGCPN

| Binder | IC50[nM], inhibition of hemolysis |
| --- | --- |
| B1 | < 100 nM |
| B2 | < 100 nM |
| B3 | < 500 nM |
| B4 | < 100 nM |
| B5 | < 250 nM |
| B6 | < 100 nM |
| B7 | < 100 nM |
| B8 | < 250 nM |
| B9 | < 100 nM |
| B10 | < 1000 nM |
| B11 | < 250 nM |
| B12 | < 100 nM |
| Ac-SEFCI[Trp(1-Me)]QDWGEHRC[Sar]EGE[AEEA][AEEA]K([γGlu-Gly-γGlu-C20 diacid])-NH2 (disulfide 4-14, also called comp 128) [Compound 128] | < 100 nM |
| Ac-SEFCI[Trp(1-Me)]QDWGEHRC[Sar]EGE[AEEA][AEEA]K([γGlu-Gly-γGlu-C18 diacid])-NH2 (disulfide 4-14) [Compound 123] | < 100 nM |
| B13 | < 100 nM |
